The results in this text go back to PMC3282106.

Among the targets are T-Mod(Dss1A) (UniProt P31948); T-Mod(Dss1B) (UniProt P31948); the T-Mods.
Holding throughout (test): ITC
For orientation: ITC needs no label: the signal is the heat of the interaction.

Broadly, the Kd is the free concentration of one partner at which half of the binding sites on the other are occupied at equilibrium, for simple one-to-one binding. Lower therefore signals tighter binding. What is called stoichiometry N is a count of units in the complex or per binding partner. In the case of “Dss1-C19 peptide mutant R57A (from UniProt P60896 52-70)”, in the assay with T-Mod(Dss1A), the Kd was 157 µM and the stoichiometry N came to 0.8. This molecule also yielded a Kd with T-Mod(Dss1B) of 665 µM.
Turning to “Dss1-C19 peptide (from UniProt P60896 52-70)”, in the assay with T-Mod(Dss1A), the Kd is 20.2 µM and the stoichiometry N was 0.8. Also, in the assay with T-Mod(Dss1B), the Kd stood at 18.6 µM and the stoichiometry N is 1.1.

B1: Sem1 (natural protein)
chain: MSTDVAAAQAQSKIDLTKKKNEEINKKSLEEDDEFEDFPIDTWANGETIKSNAVTQTNIWEENWDDVEVDDDFTNELKAELDRYKRENQ
B1 returned a Kd in the assay with the T-Mods of 175 µM.
